Test results published in the DeepSol protein solubility set.

Test: soluble on expression in E. coli; label from the status in PepcDB or PDB records

Row | Sequence | soluble on expression in E. coli
1 | TFRLVIACPDGVGIVAKVSNFLATYNGWITEASHHSDNDNGWFFMRHEIRADSLPFDLDGFRQAFAPIAREFSMEWRITDSEVKKRVVLMASKESHCLADLLHRWHSGELDCEIPCVIANHDDLRSMVEWHGIPYFHVPVDPQDKQPAFDEVSRLIDEHGADCIVLARYMQILPPDLCRKYAHQVINIHHSFLPSFIGAKPYHQASKRGVKLIGATSHYVTEELDAGPIIEQDVVRVTHRDNVEDMVRLGKDVEKLVLARGLRYHLEDRVLVH | not soluble
2 | MLVVPARLHRWPPEVQDLFGREGPLVLEIGFGDGRFTAELARSRPDWLVLGAEVSAASVLRALRRMRREGLANVRLYHGQGPFALRNLVLPGTLDQVIVNFPDPWPKKRHQERRLLREAFFRRLSTRLKPGGSLLLTTDHEEYFRFALEEAERTGLYRVEVRPPPEAHLRTKYALKWKEAGRAFFHAAFIKLREDPAPWPPLRRYDVAHALLSGELPQDLALEKTPVRLKEGVAVFLEVARGKEGFYVLTHVEEEDLTQDLLLEVRKSARGVYAGVSRFGSPLITEAVKGAVRALVDRLEAHGLEVVQDHT | soluble
3 | MGVANDSSPEYRWMSPHRLSDTVILGDCLYFNNIMSQLDLHQNWAPSVRLLNYFKNFNKETLLKIEENDYINSSFFQQKDKRFYPINDDFYHISTGGYGIVFKIDNYVVKFVFEATKLYSPMETTAEFTVPKFLYNNLKGDEKKLIVCAWAMGLNYKLTFLHTLYKRVLHMLLLLIQTMDGQELSLRYSSKVFLKAFNERKDSIKFVKLLSHFYPAVINSNINVINYFNRMFHFFEHEKRTNYEYERGNIIIFPLALYSADKVDTELAIKLGFKSLVQYIKFIFLQMSLLYIKIYELPCCDNFLHADLKPDNILLFDSNEPIIIHLKNKKFVFNERIKSALNDFDFSQVAGIINKKIKNNFKVEHNWYYDFHFFVHTLLKTYPEIEKDIEFSTALEEFIMCTKTDCDKYRLKVSILHPISFLEKFIMRDIFSDWINGGN | not soluble
4 | MSLQIAQVLVDVPTMQTNRPYSYRIPTAWQSQVQPGMRVVVPFGRGKRRVQGFVLALDDVTNFDGELKPIDAVVDLAPVLNTEALALTKWLAASTFSFQITCAQTMLPAVMRAKYEKQLRTTATTPATIRTTLFGDQSMVPFDDVATTPAIVSQLLRLQAAGQVDVYYQVKNQARRKTQTAVKAALTNEALQAAVDQVRAGATQQLAVLQGLLTLNGEQLSQKAFCTRFDVTDGAIRTAVQKGWLKKVAVEVYRDPYATSDIKTTKALQLNDEQQVAVDQITQAVDQAATTTFLLEGVTGSGKTEVYLQSMAAALVQGKTALMLVPEISLTPQMVQRVKGRFGKAVAVLHSGLSSGEKYDEWRRIQRGEAQVVVGARSAVFAPLKNLGLIVMDEEHESTYKQDDAPRYHARQVALWRSRYHNCPVVLGSATPSLETRARAEKGVYQRLLLADRVNRRPLPKVSIIDMKKEMQQHAESNFSAPLLVALQDRLERHEQSVLMLNRRGYSSFVLCRDCGFVLKCPNCDISLTLHMDTHTMKCHYCGHEEAIPRNCPNCHSRQIRYYGTGTEKVEEELQDLLPDANIIRMDNDTTRKKGAHAKLLAQFGSGEADILIGTQMIAKGLDFPNVTLVGVLNADTALGLPDFRASERTFQLLTQVSGRAGRAEKSGHVYIQTFNPDHYAIRFAQHHDYEGFFKYEMQMRHRGGYPPYYFTVQITASDLDEGVAAKRMYQLLQWLRPRLAPSTILLGPTPKPIARVNRRYYYQIVIKYKQEPNLAQTLTTLLHETQAQQRQGLQIGIDVEPLHFMEGHHHHHH | soluble
5 | MAHHHHHHMSNNYFNNEAPPDNINNLSYDEGLEQQYNFTDNEEEIFSSFFSDNKKNICLPKSLREHMLIEYTAMFVNIEGDIAEFYLKLDNDVLIKFPFLHVDHPLHRYYEFVKLNTKKRLITKYPKIIPSPLKDLFQYVTDLENTKVINNEIKSKKLKEKQIEHVKNKKGNKQILMKQKENQSYSSLFMRYMQSDDEKSNSTVENDKNEEHNEDTLSNESMMEIDNIIKKLKDKKDKSSMQTARFYLQCIEKLKFLQYGTKQYKYFVQKLLYDQNRLNVNNSDIKVRQKIHSTDFLEFLLKTDEHKKSLDNVINEDIYEQQNSHETETERDDLQTMQDYRR | not soluble
6 | MRYWLMKSEPSEVSIDDLAARPGQTVPWDGVRNYQARNFMRNQMQPGDLVFFYHSSCPEPGIAGVVEVSRLAYPDETQFDSASKYFDPKSTRENPRWFNVEVRFLRKTRLLSLRELRSYPELAGMRILQKGNRLSITPVDPSEWKFIEAKLQSLEHHHHHH | not soluble
7 | GMPIDTPTDASPADGSASDTVFFGIMSGLELGTFVPGQRLVETDLVAHFGVGRNSVREALQRLAAEGIVDLQRHRGAVIRRLSLQETLDVLDVAERMTGLLARAATRGSGNQPQVQALRASVQALVAAEKAQDGETFSNARRHFYRTLLEMGDNRELRRLFPTIHMPIVHAQHRLASLRQMRLDDYRRIATAVLAGEPDAAEAAGAAHVKNVRGAILDRQPA | soluble
8 | MGSDKIHHHHHHMLEHGGNLHVASQQYGIAREYWLDLSTGINPQGYPVPEIPASAWHRLPEADPPLERIAASYYGAQRLLVTAGSQAAIQALPRLRQPCRVTVLGPMYAEHAHAWRQQGHQVSEIDYLPSAAMLAETDVLLVCNPNNPTARLLAPSTLLEWHQVLSEHDGWLVVDEAFMDSTPEHSLAAYSHHSGLIILRSLGKFFGLAGARVGFVLAETPLLTRMADLLGPWAVTGPSSIVAQAALADHAWQQHHRAKLLAESRQLADMLRQAGLPARKGCALFQWLKLEHAERLHVQLARQGVWTRHFPALRGVRIGLPSADGWQKLAVALKELQLQDLSD | not soluble
9 | MGSDKIHHHHHHMNSSVKTRILQPLRIGKHIARHPIIQGAMAVRVSGAKLAGAVANAGGVGVIASLGLGLDSPYFDKRKKRSFFTANRLALIDELAKARSISPDGVIGVNILVATKDYSVLAQTAAAQGADIIITGAGLPLALPEYTAAYPDVALVPSVANLEAAQLICETWQSRYHRLPDALIVENCQQVGGHFTQCEQVNIPGFSLELVIRQLRDYCQNHLGARIPLIVSGGISDRTDIDRMIAIGADGVQIGTRFVTTVECDADQRYKDYHLQAQPEDIVTVPSPVGKPSRALHNLFTEQVMSNSSNLEKRCIANCLETCLCRDHGKTYCLLQALAQAARGDVENGLIFSGANAGYTQDIISVPELMTELTQAHTIEVSSSDKY | not soluble
10 | MGHHHHHHSHMSVAGGEIRGDTGGEDTAAPGRFSFSPEPTLEDIRRLHAEFAAERDWEQFHQPRNLLLALVGEVGELAELFQWKTDGEPGPQGWSPRERAALQEELSDVLIYLVALAARCRVDLPLAVLSKMDINRRRYPAHLARSSSRKYTELPHGAISEDQAVGPADIPCDSTGQTST | soluble
11 | MRRIAIVGGGQAGLPLAFGLLDKGYEVTVVSNRTPDDIRRGKVMSSQCMFDPALQIERELGINGWEADCPPVEGIGFAVPHPEQAGAKAIEWSARLDRPAQSVDQRVKMPAWLEQVQARGGRLLLQDAGIAELEALAQSHDLVILAAGKGEVVKLFERDAARSPFDKPQRALALTYVHGLEPAPDYSRVAFNLIPGVGEYFVFPALTLSGPCDIMVFEGVPGGPLDCWRDVRTPQEHLAASRRFLQTYLPWEADRARNVELTDDKGILAGAFAPTVRKPVMTLPSGRLVFGLGDAVVTNDPITGQGANNATKACKVYLDAILARGEQPYTRDWMEATFEQFWDYAQWVVQWTNSLLTPPPPHILGLLGTAEQAPSLASTIANGFNHPPSYFPWWADAQACEGFIAQHQRTPATATALEHHHHHH | not soluble
12 | GKLDEFEAWMRTITKLDIVSLMDFNWGKGGLIKGEKVMNRLGDILGDLHIEDLSIPYTAVAADISNEKEVWLQKGSLLQAIRASISLPLYLMPIEFNGKTLIDGGVLNPVPIA | not soluble
13 | MSLNKIKILPLAIALALSGCGSDETTPIDTGSHVASPDWQDQIIYFLMIDRFNDGDSALNDQGQNEFDPTSDKKFSGGDLVGVSDKLSYIEDLGATSIWITPPVANQWWDAEQNYGGYHGYWARDFQKVDEHFGDMESYQALAREVHARNMFLIQDIVTNHVGNFFTYDDPYSYDPSLPCQGFRLIKNALPAGQELPYPLNMNECKTDGTGSYHWTPTITDHNDPVQEKTWQLSDLDDLNTSDPEVRAYLKESYRKWIREVGVDGFRIDTVKFVEHDFWSDFLHADDGVMTQAVDTGRDNFLTFGEVFETSTPYHTEGEEKMLTYIGESGSPKQLTSVLNFPLQATMTRVFASGQPTDYLRFRLEKMMEMFPNPYIMPNFIDNHDMPRFLSQGSVNDMKQALITMMSVPGIPVIYQGTEQAMSAARDAMFAGGYREDGNYVDSFDQNSEMYLFIQELAKLRTENKVMTRGEIKVIGSDKAGAGVFAFTRTLDNDEVLVVMNTSNSPMLMNQLDVEQAGGTVFKQQIMSNWADAPEQLVADENGHVTLELPAKSAVIYSKTSSNQSVNTPDLNIQLAQDWEGKTITGDIVIAGSANANEKLNLVVDGNLETAQTITVGADGQFSVTLSTRHFAIGEQQHRFAIYSTEKKAGIEDVNFVSNLSWSNTPDDTIDDAGDAQDGVGGPNGNYSLPTDPTFDKDNSQLAINKAEVFTVGSNVRLTFTMDKITDTWLPPNGFDHVGFTIFIDLPEEAATNLSELPKINASMPNGTWSRNAVVFGWQSSIYNTKGANATTWGEAVTPAPTVTVDKANNTISMDFASDALGRPESLDGIRFYVTTWDLDGLSATYRPLEQDKGPWNFSGGASDESKIWDDLPIITLSEGHHHHHH | soluble
14 | HHHHHHSSGLVPRGSHMRNYCTKTFGSAFSVTVVPTLKDNFSYLINDHTTHTLAAVDVNADYKPILTYIEEHLKQQGNADVTYTFSTILSTHKHWDHSGGNAKLKAELEAMNSTVPVVVVGGANDSIPAVTKPVREGDRVQVGDLSVEVIDAPCHTRGHVLYKVQHPQHPNDGVALFTGDTMFIAGIGAFFEGDEKDMCRAMEKVYHIHKGNDYALDKVTFIFPGHEYTSGFMTFSEKTFPDRASDDLAFIQAQRAKYAAAVKTGDPSVPSSLAEEKRQNLFLRVADPAFVAKMNQGNAHALMMYLYNACD | soluble
15 | MNEIIGKFAREGILIEDNAYFRLREMDDPASVSSELIVKIKSNGGKFTVLTSEMLDEFFEIDNPAEIKARGPLMVPAERDFDFEVISDTSNRSYTSGEIGDMIAYFNSRYSSLKNLLSKRPELKGHIPIADLRGGEDVVSIIGMVNDVRNTKNNHRIIELEDDTGEISVVVHNENHKLFEKSEKIVRDEVVGVHGTKKGRFVVASEIFHPGVPRIQEKEMDFSVAFISDVHIGSQTFLEDAFMKFVKWINGDFGSEEQRSLAADVKYLVVAGDIVDGIGIYPGQEKELLIRDIHEQYEEAARLFGDIRSDIKIVMIPGNHDSSRIAEPQPAIPEEYAKSLYSIRNIEFLSNPSLVSLDGVRTLIYHGRSFDDMAMSVNGLSHERSDLIMEELLEKRHLAPIYGERTPLASEIEDHLVIDEVPHVLHTGHVHINAYKKYKGVHLINSGTFQSQTEFQKIYNIVPTCGQVPVLNRGVMKLLEFSLEHHHHHH | not soluble
16 | MFKRVHLIVLDSVGIGEAPDAEKFGDVGSDTLGHIAKEAGLTIPHLEKLGLGTIAPLTGVKAVADHDGYATKLEEISVGKDTMTGHWEIMGLNIKKPFRVFPNGFPEELLKQIEDFSGRKVVCNKPYSGTAVIDDYGEHQMKTGDLIVYTSADPVLQIAAHEDIIPLEELYKICQYVRDITKDEPYMIGRIIARPYVGEPGNFTRTSNRHDYALDPFGHTVLDSLKENGNDVIAVGKINDIFNGQGITEAIRTKSNMDGVDQLLTVMNKEFTGLSFTNLVDFDALYGHRRDVKGYAKAIEDFDGRLPEIMAAMAEDDLLLITADHGNDPTFPGTDHTREYVPLLAYSKKMTKQGSLPQGFYSDISATIAENFEVPATENGQSFLNQLQ | not soluble
17 | MGSDKIHHHHHHMDLRSDALQILKDTSRTFYIPISILPSGLQEAVASAYLCMRAIDEIEDHPTLDNPTKAKLLRGISLTLQAGVDGFPVDAFAAGFSGYENTLAEVTMRIREWSLLAPETIAPRIWDATAAMSDRMAYWAENNWKIYTESDLDRYTFGVAGAVGLLLSDLWTWYDGTQTNRTLAIGFGRGLQAVNILRNHVEDLGRGVSFFPDGWDANNMQEYALRNLALADAYTQALPDGPALNFCQIPLTLAHGTIDAIANGKEKLSRNDVMALLEHLITFNLKAG | not soluble
